Values belong to the binder of their own block, whether it stands above or below them.
Assays:
[1] = molecular target: T1, 4H883-bN; assay: two-hybrid library CCNG1;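 also: natural log of median RNA to DNA barcode read ratio; higher means stronger binding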
T1 chain: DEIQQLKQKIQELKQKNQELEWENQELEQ

[2] = molecular target: T2, 4H908-bN; assay: two-hybrid library CCNG1;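 also: natural log of median RNA to DNA barcode read ratio; higher means stronger binding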
T2 chain: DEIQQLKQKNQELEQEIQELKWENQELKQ

[3] = molecular target: T3, 4H918-bN; assay: two-hybrid library CCNG1;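 also: natural log of median RNA to DNA barcode read ratio; higher means stronger binding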
T3 chain: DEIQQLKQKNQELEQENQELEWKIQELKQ

[4] = molecular target: T4, 4H953-bN; assay: two-hybrid library CCNG1;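 also: natural log of median RNA to DNA barcode read ratio; higher means stronger binding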
T4 chain: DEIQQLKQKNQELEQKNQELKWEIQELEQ

[5] = molecular target: T5, 4H967-bN; assay: two-hybrid library CCNG1;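 also: natural log of median RNA to DNA barcode read ratio; higher means stronger binding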
T5 chain: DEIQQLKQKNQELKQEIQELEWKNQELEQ

[6] = molecular target: T6, 4H3343-AA; assay: two-hybrid library CCmax;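 also: natural log of median RNA to DNA barcode read ratio; higher means stronger binding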
T6 chain: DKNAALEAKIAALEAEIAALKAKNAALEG

[7] = molecular target: T7, 4H335-AA; assay: two-hybrid library CCmax; conditions: mean of both orientations
T7 chain: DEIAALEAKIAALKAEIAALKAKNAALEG

[8] = molecular target: T8, 4H342-AA; assay: two-hybrid library CCmax; conditions: mean of both orientations
T8 chain: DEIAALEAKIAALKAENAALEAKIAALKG

[9] = molecular target: T9, 4H3427-AA; assay: two-hybrid library CCmax; conditions: mean of both orientations
T9 chain: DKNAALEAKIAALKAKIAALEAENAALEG

[10] = molecular target: T10, 4H3606-AA; assay: two-hybrid library CCmax; conditions: mean of both orientations
T10 chain: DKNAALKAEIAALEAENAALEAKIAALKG

[11] = molecular target: T11, 4H3627-AA; assay: two-hybrid library CCmax; conditions: mean of both orientations
T11 chain: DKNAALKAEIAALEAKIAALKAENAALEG

[12] = molecular target: T12, 4H3655-AA; assay: two-hybrid library CCmax; conditions: mean of both orientations
T12 chain: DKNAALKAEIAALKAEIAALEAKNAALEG

[13] = molecular target: T13, 4H3844-AA; assay: two-hybrid library CCmax; conditions: mean of both orientations
T13 chain: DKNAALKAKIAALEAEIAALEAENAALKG

[14] = molecular target: T14, 4H3921-AA; assay: two-hybrid library CCmax; conditions: mean of both orientations
T14 chain: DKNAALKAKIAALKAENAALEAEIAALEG

[15] = molecular target: T15, 4H429-AA; assay: two-hybrid library CCmax; conditions: mean of both orientations
T15 chain: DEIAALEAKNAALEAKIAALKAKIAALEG

[16] = molecular target: T16, 4H454-AA; assay: two-hybrid library CCmax; conditions: mean of both orientations
T16 chain: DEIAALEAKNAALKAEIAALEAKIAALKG

[17] = molecular target: T17, 4H48-AA; assay: two-hybrid library CCmax; conditions: mean of both orientations
T17 chain: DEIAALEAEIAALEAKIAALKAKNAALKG

[18] = molecular target: T18, 4H566-AA; assay: two-hybrid library CCmax; conditions: mean of both orientations
T18 chain: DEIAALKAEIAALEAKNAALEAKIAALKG

[19] = molecular target: T19, 4H605-AA; assay: two-hybrid library CCmax; conditions: mean of both orientations
T19 chain: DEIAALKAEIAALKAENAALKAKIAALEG

[20] = molecular target: T20, 4H678-AA; assay: two-hybrid library CCmax; conditions: mean of both orientations
T20 chain: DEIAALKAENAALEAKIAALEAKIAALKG

[21] = molecular target: T21, 4H717-AA; assay: two-hybrid library CCmax; conditions: mean of both orientations
T21 chain: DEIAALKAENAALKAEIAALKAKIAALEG

[22] = molecular target: T22, 4H780-AA; assay: two-hybrid library CCmax; conditions: mean of both orientations
T22 chain: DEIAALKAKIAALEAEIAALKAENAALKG

[23] = molecular target: T23, 4H794-AA; assay: two-hybrid library CCmax; conditions: mean of both orientations
T23 chain: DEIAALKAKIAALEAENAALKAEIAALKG

[24] = molecular target: T24, 4H881-AA; assay: two-hybrid library CCmax; conditions: mean of both orientations
T24 chain: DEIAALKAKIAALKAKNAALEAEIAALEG

[25] = molecular target: T25, 4H906-AA; assay: two-hybrid library CCmax; conditions: mean of both orientations
T25 chain: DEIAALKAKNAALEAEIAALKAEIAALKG

[26] = molecular target: T26, 4H993-AA; assay: two-hybrid library CCmax; conditions: mean of both orientations
T26 chain: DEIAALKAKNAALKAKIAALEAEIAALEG

[27] = molecular target: T27, 4H428-AA; assay: two-hybrid library CCmax
T27 chain: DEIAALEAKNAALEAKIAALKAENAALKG

[28] = molecular target: T28, 4H478-AA; assay: two-hybrid library CCmax; conditions: mean of both orientations
T28 chain: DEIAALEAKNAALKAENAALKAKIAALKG

[29] = molecular target: T29, 4H497-AA; assay: two-hybrid library CCmax; conditions: mean of both orientations
T29 chain: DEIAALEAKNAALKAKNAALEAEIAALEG

[30] = molecular target: T30, 4H656-AA; assay: two-hybrid library CCmax; conditions: mean of both orientations
T30 chain: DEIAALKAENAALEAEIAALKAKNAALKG

[31] = molecular target: T31, 4H675-AA; assay: two-hybrid library CCmax; conditions: mean of both orientations
T31 chain: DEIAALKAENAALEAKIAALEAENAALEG

[32] = molecular target: T32, 4H971-AA; assay: two-hybrid library CCmax; conditions: mean of both orientations
T32 chain: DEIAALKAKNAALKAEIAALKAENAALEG

[33] = molecular target: T33, APC9806-AA; assay: two-hybrid library CCmax
T33 chain: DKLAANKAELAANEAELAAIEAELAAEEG

Binder: DEIQQLKQKIQELKQKNQELEWENQELEQ [4H883-bN]
- interaction score [1]: -1.15
- interaction score [2]: -1.19
- interaction score [3]: -0.986
- interaction score [4]: -1.82
- interaction score [5]: -0.861

Binder: DEIAALEAKNAALEAKIAALKAENAALKG [4H428-AA]
- interaction score [27]: 0.174
- interaction score [28]: -1.71
- interaction score [29]: -1.47
- interaction score [30]: -0.675
- interaction score [31]: 0.166
- interaction score [32]: -0.222

Binder: DEIQQLKQKNQELEQEIQELKWENQELKQ [4H908-bN]
- interaction score [2]: -0.618
- interaction score [3]: -0.988
- interaction score [4]: -0.77
- interaction score [5]: -0.23

The next lines start with the values.

- interaction score [6]: 1.37
- interaction score [7]: 0.806
- interaction score [8]: -1.13
- interaction score [9]: -0.88
- interaction score [10]: -1.94
- interaction score [11]: -0.363
- interaction score [12]: -1.03
- interaction score [13]: 0.2
- interaction score [14]: -1.44
- interaction score [15]: -1.22
- interaction score [16]: -0.866
- interaction score [17]: -0.868
- interaction score [18]: -1.55
- interaction score [19]: -1.38
- interaction score [20]: -1.08
- interaction score [21]: -1.27
- interaction score [22]: -1.16
- interaction score [23]: -1.33
- interaction score [24]: -1.72
- interaction score [25]: -1.17
- interaction score [26]: -1.4
Binder: DKNAALEAKIAALEAEIAALKAKNAALEG [4H3343-AA]

- interaction score [33]: -2.12
Binder: DKLAANKAELAANEAELAAIEAELAAEEG [APC9806-AA]
